Results as given in IntAct's records for PubMed 31515488.

B1: G-patch domain and KOW motifs-containing protein (Homo sapiens), Q92917 (parent)
chain: MADSKEGVLPLTAASTAPISFGFTRTSARRRLADSGDGAGPSPEEKDFLKTVEGRELQSVKPQEAPKELVIPLIQNGHRRQPPARPPGPSTDTGALADGVVSQAVKELIAESKKSLEERENAGVDPTLAIPMIQKGCTPSGEGADSEPRAETVPEEANYEAVPVEAYGLAMLRGMGWKPGEGIGRTFNQVVKPRVNSLRPKGLGLGANLTEAQALTPTGPSRMPRPDEEQEKDKEDQPQGLVPGGAVVVLSGPHRGLYGKVEGLDPDNVRAMVRLAVGSRVVTVSEYYLRPVSQQEFDKNTLDLRQQNGTASSRKTLWNQELYIQQDNSERKRKHLPDRQDGPAAKSEKAAPRSQHWLHRDLRVRFVDNMYKGGQYYNTKMIIEDVLSPDTCVCRTDEGRVLEGLREDMLETLVPKAEGDRVMVVLGPQTGRVGHLLSRDRARSRALVQLPRENQVVELHYDAICQYMGPSDTDDD
partner: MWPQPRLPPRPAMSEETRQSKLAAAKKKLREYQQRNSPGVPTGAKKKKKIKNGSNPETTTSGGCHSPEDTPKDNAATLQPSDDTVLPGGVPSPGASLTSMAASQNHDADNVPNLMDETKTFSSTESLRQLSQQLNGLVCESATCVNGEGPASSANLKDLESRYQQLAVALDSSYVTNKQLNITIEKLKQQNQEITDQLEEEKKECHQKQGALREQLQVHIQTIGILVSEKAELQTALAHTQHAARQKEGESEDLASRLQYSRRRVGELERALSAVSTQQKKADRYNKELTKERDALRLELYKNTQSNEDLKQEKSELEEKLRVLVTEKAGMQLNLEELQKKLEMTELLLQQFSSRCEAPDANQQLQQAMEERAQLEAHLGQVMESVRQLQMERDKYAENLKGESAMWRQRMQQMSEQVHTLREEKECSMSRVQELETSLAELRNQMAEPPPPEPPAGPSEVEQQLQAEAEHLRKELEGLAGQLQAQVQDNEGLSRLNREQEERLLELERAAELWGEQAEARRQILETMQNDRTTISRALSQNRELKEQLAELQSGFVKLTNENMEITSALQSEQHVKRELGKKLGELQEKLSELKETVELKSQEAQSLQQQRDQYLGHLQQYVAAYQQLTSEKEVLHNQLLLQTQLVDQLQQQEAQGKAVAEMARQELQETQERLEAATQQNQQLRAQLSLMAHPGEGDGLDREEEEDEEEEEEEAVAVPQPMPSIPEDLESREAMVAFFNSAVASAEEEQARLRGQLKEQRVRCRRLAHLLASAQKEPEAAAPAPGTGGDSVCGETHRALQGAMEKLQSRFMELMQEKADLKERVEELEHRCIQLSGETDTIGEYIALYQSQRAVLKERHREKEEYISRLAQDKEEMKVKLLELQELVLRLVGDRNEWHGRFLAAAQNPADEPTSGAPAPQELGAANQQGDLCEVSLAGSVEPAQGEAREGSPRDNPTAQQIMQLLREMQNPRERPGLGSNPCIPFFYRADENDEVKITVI
B2: Protein LDOC1 (Homo sapiens), O95751 (parent)
chain: MVDELVLLLHALLMRHRALSIENSQLMEQLRLLVCERASLLRQVRPPSCPVPFPETFNGESSRLPEFIVQTASYMLVNENRFCNDAMKVAFLISLLTGEAEEWVVPYIEMDSPILGDYRAFLDEMKQCFGWDDDEDDDDEEEEDDY
partner: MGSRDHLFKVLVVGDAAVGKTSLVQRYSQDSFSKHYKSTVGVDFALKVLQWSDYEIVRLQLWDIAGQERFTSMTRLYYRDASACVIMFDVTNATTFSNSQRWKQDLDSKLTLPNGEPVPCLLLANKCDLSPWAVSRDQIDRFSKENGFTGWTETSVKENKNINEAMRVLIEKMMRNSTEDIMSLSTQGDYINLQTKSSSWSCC
B3: Glutathione S-transferase omega-2 (Homo sapiens), Q9H4Y5 (parent)
chain: MSGDATRTLGKGSQPPGPVPEGLIRIYSMRFCPYSHRTRLVLKAKDIRHEVVNINLRNKPEWYYTKHPFGHIPVLETSQCQLIYESVIACEYLDDAYPGRKLFPYDPYERARQKMLLELFCKVPHLTKECLVALRCGRECTNLKAALRQEFSNLEEILEYQNTTFFGGTCISMIDYLLWPWFERLDVYGILDCVSHTPALRLWISAMKWDPTVCALLMDKSIFQGFLNLYFQNNPNAFDFGLC
B4: "N-acyl-aromatic-L-amino acid amidohydrolase (carboxylate-forming)" (Homo sapiens), Q96HD9 (parent)
chain: MCSLPVPREPLRRVAVTGGTHGNEMSGVYLARHWLHAPAELQRASFSAVPVLANPAATSGCRRYVDHDLNRTFTSSFLNSRPTPDDPYEVTRARELNQLLGPKASGQAFDFVLDLHNTTANMGTCLIAKSSHEVFAMHLCRHLQLQYPELSCQVFLYQRSGEESYNLDSVAKNGLGLELGPQPQGVLRADIFSRMRTLVATVLDFIELFNQGTAFPAFEMEAYRPVGVVDFPRTEAGHLAGTVHPQLQDRDFQPLQPGAPIFQMFSGEDLLYEGESTVYPVFINEAAYYEKGVAFVQTEKFTFTVPAMPALTPAPSPAS
partner: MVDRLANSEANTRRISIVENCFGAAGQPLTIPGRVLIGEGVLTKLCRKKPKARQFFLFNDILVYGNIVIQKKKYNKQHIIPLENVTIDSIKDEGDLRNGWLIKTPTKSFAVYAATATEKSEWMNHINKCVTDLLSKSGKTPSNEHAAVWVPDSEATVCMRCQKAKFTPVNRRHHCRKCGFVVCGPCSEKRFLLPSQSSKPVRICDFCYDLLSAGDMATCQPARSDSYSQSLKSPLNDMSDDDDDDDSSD
B5: Four and a half LIM domains protein 2 (Homo sapiens), Q14192 (parent)
chain: MTERFDCHHCNESLFGKKYILREESPYCVVCFETLFANTCEECGKPIGCDCKDLSYKDRHWHEACFHCSQCRNSLVDKPFAAKEDQLLCTDCYSNEYSSKCQECKKTIMPGTRKMEYKGSSWHETCFICHRCQQPIGTKSFIPKDNQNFCVPCYEKQHAMQCVQCKKPITTGGVTYREQPWHKECFVCTACRKQLSGQRFTARDDFAYCLNCFCDLYAKKCAGCTNPISGLGGTKYISFEERQWHNDCFNCKKCSLSLVGRGFLTERDDILCPDCGKDI
partner: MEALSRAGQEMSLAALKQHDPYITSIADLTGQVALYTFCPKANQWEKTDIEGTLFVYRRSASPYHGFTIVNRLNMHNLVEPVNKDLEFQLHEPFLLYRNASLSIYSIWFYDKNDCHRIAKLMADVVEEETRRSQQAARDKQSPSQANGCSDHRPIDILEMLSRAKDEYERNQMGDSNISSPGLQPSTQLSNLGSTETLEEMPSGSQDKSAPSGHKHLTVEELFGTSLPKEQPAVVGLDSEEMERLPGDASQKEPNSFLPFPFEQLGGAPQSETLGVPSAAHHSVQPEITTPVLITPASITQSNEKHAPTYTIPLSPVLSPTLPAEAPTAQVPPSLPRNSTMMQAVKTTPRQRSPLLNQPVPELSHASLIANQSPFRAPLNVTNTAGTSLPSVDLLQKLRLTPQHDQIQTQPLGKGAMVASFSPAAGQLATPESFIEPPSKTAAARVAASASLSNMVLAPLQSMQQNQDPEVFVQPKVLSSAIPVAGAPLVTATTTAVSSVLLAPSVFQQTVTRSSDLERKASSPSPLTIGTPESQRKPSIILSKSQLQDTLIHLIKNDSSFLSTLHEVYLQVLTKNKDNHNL
B6: Tripartite motif-containing protein 59 (Homo sapiens), Q8IWR1 (parent)
chain: MHNFEEELTCPICYSIFEDPRVLPCSHTFCRNCLENILQASGNFYIWRPLRIPLKCPNCRSITEIAPTGIESLPVNFALRAIIEKYQQEDHPDIVTCPEHYRQPLNVYCLLDKKLVCGHCLTIGQHHGHPIDDLQSAYLKEKDTPQKLLEQLTDTHWTDLTHLIEKLKEQKSHSEKMIQGDKEAVLQYFKELNDTLEQKKKSFLTALCDVGNLINQEYTPQIERMKEIREQQLELMALTISLQEESPLKFLEKVDDVRQHVQILKQRPLPEVQPVEIYPRVSKILKEEWSRTEIGQIKNVLIPKMKISPKRMSCSWPGKDEKEVEFLKILNIVVVTLISVILMSILFFNQHIITFLSEITLIWFSEASLSVYQSLSNSLHKVKNILCHIFYLLKEFVWKIVSH
partner: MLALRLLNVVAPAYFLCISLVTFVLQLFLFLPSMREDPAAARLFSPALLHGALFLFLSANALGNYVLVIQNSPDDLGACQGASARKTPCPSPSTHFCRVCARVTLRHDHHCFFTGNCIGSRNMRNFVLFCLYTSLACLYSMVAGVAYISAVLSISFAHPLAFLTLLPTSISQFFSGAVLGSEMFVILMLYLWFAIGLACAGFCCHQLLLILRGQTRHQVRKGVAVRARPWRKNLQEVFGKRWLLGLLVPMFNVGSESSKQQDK
B7: Protein RD3 (Homo sapiens), Q7Z3Z2 (parent)
chain: MSLISWLRWNEAPSRLSTRSPAEMVLETLMMELTGQMREAERQQRERSNAVRKVCTGVDYSWLASTPRSTYDLSPIERLQLEDVCVKIHPSYCGPAILRFRQLLAEQEPEVQEVSQLFRSVLQEVLERMKQEEEAHKLTRQWSLRPRGSLATFKTRARISPFASDIRTISEDVERDTPPPLRSWSMPEFRAPKAD
B8: Programmed cell death 6-interacting protein (Homo sapiens), Q8WUM4 (parent)
chain: MATFISVQLKKTSEVDLAKPLVKFIQQTYPSGGEEQAQYCRAAEELSKLRRAAVGRPLDKHEGALETLLRYYDQICSIEPKFPFSENQICLTFTWKDAFDKGSLFGGSVKLALASLGYEKSCVLFNCAALASQIAAEQNLDNDEGLKIAAKHYQFASGAFLHIKETVLSALSREPTVDISPDTVGTLSLIMLAQAQEVFFLKATRDKMKDAIIAKLANQAADYFGDAFKQCQYKDTLPKEVFPVLAAKHCIMQANAEYHQSILAKQQKKFGEEIARLQHAAELIKTVASRYDEYVNVKDFSDKINRALAAAKKDNDFIYHDRVPDLKDLDPIGKATLVKSTPVNVPISQKFTDLFEKMVPVSVQQSLAAYNQRKADLVNRSIAQMREATTLANGVLASLNLPAAIEDVSGDTVPQSILTKSRSVIEQGGIQTVDQLIKELPELLQRNREILDESLRLLDEEEATDNDLRAKFKERWQRTPSNELYKPLRAEGTNFRTVLDKAVQADGQVKECYQSHRDTIVLLCKPEPELNAAIPSANPAKTMQGSEVVNVLKSLLSNLDEVKKEREGLENDLKSVNFDMTSKFLTALAQDGVINEEALSVTELDRVYGGLTTKVQESLKKQEGLLKNIQVSHQEFSKMKQSNNEANLREEVLKNLATAYDNFVELVANLKEGTKFYNELTEILVRFQNKCSDIVFARKTERDELLKDLQQSIAREPSAPSIPTPAYQSSPAGGHAPTPPTPAPRTMPPTKPQPPARPPPPVLPANRAPSATAPSPVGAGTAAPAPSQTPGSAPPPQAQGPPYPTYPGYPGYCQMPMPMGYNPYAYGQYNMPYPPVYHQSPGQAPYPGPQQPSYPFPQPPQQSYYPQQ

Variants of: B1
Details: with goga2_human GOLGA2, Q08379

Variant	effect of a mutation on the interaction
A129T	with no effect
V393A	with no effect

Variants of: B2
Details: with rab7l_human RAB29, O14966

Variant	effect of a mutation on the interaction
L12H	disrupting interaction strength

Variants of: B3
Details: with ap2a_human TFAP2A

Variant	effect of a mutation on the interaction
N142D	with no effect

Variants of: B4
Details: with pkhf2_human PLEKHF2, Q9H8W4

Variant	effect of a mutation on the interaction
R8Q	disrupting interaction strength

Variants of: B5
Details: with dcp1a_human DCP1A

Variant	effect of a mutation on the interaction
N95K	with no effect
A37S	with no effect

Variants of: B6
Details: with zdh22_human ZDHHC22, Q8N966

Variant	effect of a mutation on the interaction
I277V	with no effect

Variants of: B7
Details: with ei2ba_human EIF2B1, Q14232
Sequence of ei2ba_human EIF2B1, Q14232 (Q14232 whole entry): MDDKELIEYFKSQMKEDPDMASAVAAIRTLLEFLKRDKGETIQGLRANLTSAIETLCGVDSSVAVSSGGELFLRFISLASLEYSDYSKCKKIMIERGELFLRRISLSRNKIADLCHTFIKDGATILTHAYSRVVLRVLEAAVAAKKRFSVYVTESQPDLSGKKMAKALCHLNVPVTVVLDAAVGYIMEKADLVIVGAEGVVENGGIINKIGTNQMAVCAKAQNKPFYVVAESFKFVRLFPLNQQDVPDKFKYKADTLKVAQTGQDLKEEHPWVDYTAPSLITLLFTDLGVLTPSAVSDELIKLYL

Variant	effect of a mutation on the interaction
R167K	with no effect

Variants of: B8
Details: with pdcd6_human PDCD6, O75340
Sequence of pdcd6_human PDCD6, O75340 (O75340 whole entry): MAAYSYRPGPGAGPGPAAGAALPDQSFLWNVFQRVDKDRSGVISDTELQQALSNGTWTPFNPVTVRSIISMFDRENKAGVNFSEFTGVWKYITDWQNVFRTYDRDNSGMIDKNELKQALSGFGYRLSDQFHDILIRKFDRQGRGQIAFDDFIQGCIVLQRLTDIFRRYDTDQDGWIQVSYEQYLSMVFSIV

Variant	effect of a mutation on the interaction
G778A	with no effect
S730L	with no effect
